Test results as given in patent US20260209347A1 (BIORAY PHARMACEUTICAL, published 2026).
Read-outs that look alike come from different tables or passages of the source.

What was measured:
[1] = biological target: human NKG2A/CD94 on cells (CHOK1-hNKG2A/CD94) (human) (UniProt P26715); assay: FACS on human NKG2A overexpressing cell line
[2] = biological target: human NKG2A/CD94 on cells (CHOK1-hNKG2A/CD94) (human) (UniProt P26715); assay: cell-based or functional assay
[3] = biological target: human NKG2A/CD94 on cells (CHOK1-hNKG2A/CD94) (human) (UniProt P26715); assay: cell-based or functional assay; remark: listed apart in the source
[4] = biological target: human NKG2A/CD94 on cells (CHOK1-hNKG2A/CD94) (human, UniProt P26715 1-233; Q13241 1-179); assay: cell-based or functional assay
Chain of human NKG2A/CD94 on cells (CHOK1-hNKG2A/CD94) (P26715 whole entry, chain 1 of 2): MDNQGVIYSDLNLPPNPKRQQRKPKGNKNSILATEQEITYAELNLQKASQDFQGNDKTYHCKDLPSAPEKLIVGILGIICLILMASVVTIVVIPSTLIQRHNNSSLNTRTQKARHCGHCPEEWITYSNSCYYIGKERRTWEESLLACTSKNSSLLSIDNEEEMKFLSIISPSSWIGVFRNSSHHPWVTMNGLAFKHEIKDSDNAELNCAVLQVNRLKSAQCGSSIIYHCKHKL
Chain of human NKG2A/CD94 on cells (CHOK1-hNKG2A/CD94) (Q13241 whole entry, chain 2 of 2): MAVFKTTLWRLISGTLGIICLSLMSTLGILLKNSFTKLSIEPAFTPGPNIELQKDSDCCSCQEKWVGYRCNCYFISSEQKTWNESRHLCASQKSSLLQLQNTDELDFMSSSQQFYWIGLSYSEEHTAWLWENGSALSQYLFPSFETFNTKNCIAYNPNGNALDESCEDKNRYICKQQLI

[5] = biological target: T1, human NKG2C/CD94 on cells (CHOK1-hNKG2C/CD94) (human, UniProt P26717 1-231; Q13241 1-179); assay: FACS on CHOK1-hNKG2C/CD94 cells
T1 construct: whole, on cells; also called human NKG2C overexpressing cells; human NKG2C overexpressing cell line
T1 sequence (P26717 whole entry, chain 1 of 2): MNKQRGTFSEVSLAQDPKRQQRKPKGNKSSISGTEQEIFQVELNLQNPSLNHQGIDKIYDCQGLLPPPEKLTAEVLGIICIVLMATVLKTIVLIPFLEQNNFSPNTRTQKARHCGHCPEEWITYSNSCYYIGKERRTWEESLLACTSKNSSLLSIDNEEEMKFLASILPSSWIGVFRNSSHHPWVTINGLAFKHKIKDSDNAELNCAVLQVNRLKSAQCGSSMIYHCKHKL
T1 sequence (Q13241 whole entry, chain 2 of 2): as the sequence (Q13241 whole entry, chain 2 of 2) above
Procedure: Human NKG2A overexpressing cells (CHOK1-hNKG2A/CD94), cyno NKG2A overexpressing cells (CHOK1-cynoNKG2A/CD94), and human NKG2C overexpressing cells (CHOK1-hNKG2C/CD94) were digested with TrypLE (purchased from Gibco). Cells were collected by centrifugation, then resuspended to 2E6/mL with FACS buffer (PBS+2% FBS). The cells were added to a 96-well cell plate at 100 μL per well, and the supernatant was discarded after centrifugation. The antibody was gradiently diluted with FACS buffer (initial concentration of 200 nM, 5-fold dilution, including point 0, a total of 10 concentration points), added to the cells at 100 μL/well, mixed, and incubated at 4° C. for 1 hour. The incubated cells were centrifuged at 300 g for 5 min and washed twice with FACS buffer. Secondary antibody, anti-human IgG fluorescent secondary antibody 488 (purchased from Thermofisher A-11013), was added, incubated at 4° C. for one hour, then the cells were washed twice with FACS buffer, resuspended in PBS and analyzed by FACS instrument.

Chain of human NKG2A/CD94 on cells (CHOK1-hNKG2A/CD94) (human) (P26715 whole entry, chain 1 of 2): as the sequence (P26715 whole entry, chain 1 of 2) above
Chain of human NKG2A/CD94 on cells (CHOK1-hNKG2A/CD94) (human) (Q13241 whole entry, chain 2 of 2, further chain): as the sequence (Q13241 whole entry, chain 2 of 2) above

Binder	IC50 (nM), killing of LCL721.221 target cells by NK92 cells [4] [nM]	also measured
NKG2A positive control antibody Z270 (Monalizumab) (antibody, INN chains, looked up, V domains shown) VH: QVQLVQSGAEVKKPGASVKVSCKASGYTFTSYWMNWVRQAPGQGLEWMGRIDPYDSETHYAQKLQGRVTMTTDTSTSTAYMELRSLRSDDTAVYYCARGGYDFDVGTLYWFFDVWGQGTTVTVSS VL: DIQMTQSPSSLSASVGDRVTITCRASENIYSYLAWYQQKPGKAPKLLIYNAKTLAEGVPSRFSGSGSGTDFTLTISSLQPEDFATYYCQHHYGTPRTFGGGTKVEIK		Maximum MFI [1]: 16100 MFI; IC50 (nM), killing of LCL721.221 target cells by NK92 cells [2]: 1.11 nM; IC50 (nM), killing of LCL721.221 target cells by NK92 cells [3]: 0.57 nM
hu-43VH-21/VL-11 (antibody, human IgG4 S228P, kappa, V domains shown) VH: QVQLVQSGAEVKKPGASVKVSCKASGFNIQNTYIHWVRQAPGQGLEWMGRIDPASGSTEYAPKFQGRVTMTADTSINTGYMELSRLRSDDTAVYYCARYGNFLYYYSMDYWGQGTLVTVSS VL: DIVMTQSPLSLPVTPGEPASISCRSNKSLLHSNGNTYLYWFLQKPGQSPQLLIYRMSNLASGVPDRFSGSGSGTDFTLKISRVEAEDVGVYYCMQHLENPYTFGQGTKLEIKR	0.52	
hu-43VH-11/VL-21 (antibody, human IgG4 S228P, kappa, V domains shown) VH: QVQLVQSGAEVKKPGASVKVSCKASGFNIQNTYIHWVRQAPGQGLEWMGRIDPASGSTEYAPKFQGRVTMTADTSTNTGYMELSSLRSEDTAVYYCARYGNFLYYYSMDYWGQGTLVTVSS VL: DIVMTQSPLSLPVTLGQPASISCRSNKSLLHSNGNTYLYWFQQRPGQSPRLLIYRMSNLASGVPDRFSGSGSGTDFTLKISRVEAEDVGVYYCMQHLENPYTFGQGTKLEIKR	0.33	
hu-43VH-11/VL-31 (antibody, human IgG4 S228P, kappa, V domains shown) VH: QVQLVQSGAEVKKPGASVKVSCKASGFNIQNTYIHWVRQAPGQGLEWMGRIDPASGSTEYAPKFQGRVTMTADTSTNTGYMELSSLRSEDTAVYYCARYGNFLYYYSMDYWGQGTLVTVSS VL: DIVMTQTPLSLSVTPGQPASISCRSNKSLLHSNGNTYLYWFLQKPGQPPQLLIYRMSNLASGVPDRFSGSGSGTDFTLKISRVEAEDVGVYYCMQHLENPYTFGQGTKLEIRT	0.45	
cAb-43 (antibody, human IgG4 S228P, kappa, V domains shown, human-mouse chimeric antibody, human IgG4 constant region; also called antibody number 43; NKG2A chimeric antibody) VH: EVQLQQSVAELVRPGASVKLSCTASGFNIQNTYIHWVKQRPEQGLEWIGRIDPASGSTEYAPKFQGKATITADTSSNSGYLQLSSLTSEDTAIYYCARYGNFLYYYSMDYWGQGTSVTVSA VL: DIVMTQAAPSVPVTPGESVSISCRSNKSLLHSNGNTYLYWFLQRPGQSPQLLIYRMSNLASGVPDRFSGSGSGTAFTLRISRVEAEDVGVYYCMQHLENPYTFGGGTKLEIKR	0.28	binding result [5]: no binding (tested: initial concentration of 200 nM)
